Experimental data as given in publication PMC8162069.

Substrate: O=C[C@H](O)COP(=O)(O)O
Experiment: purified protein
Type: biochemical, Trichoderma virens
Details: without HA

| Protein | Km [µM] | kcat [s⁻¹] | kcat/Km [M⁻¹ s⁻¹] |
| --- | --- | --- | --- |
| Tv-GAPDH (Trichoderma virens Gv29-8) (protein) MAPIKVGINGFGRIGRIVFRNAVEHPDIEVVAVNDPFIETTYAAYMLKYDSSHGLFKGDVEVDGKDLVVNGKKVRFYTERDPANIKWSETGADYIVESTGVFTTTEKAKAHLVGGAKKVIISAPSADAPMYVMGVNENDYNGSADVISNASCTTNCLAPLAKVINDNYGIVEGLMTTVHSYTATQKTVDGPSAKDWRGGRGAAQNIIPSSTGAAKAVGKVIPSLNGKLTGMSIRVPTANVSVVDLTVRLEKGATYAEITETIKKAADGPLKGVLAYTNDDVVSSDMLGNTNSSIFDIKAGISLNDNFVKLVSWYDNEWGYSRRVLDLLAHVAKVDASK | 1100 ± 200 | 115 ± 21.7 | 105000 |
| HepG (Trichoderma virens Gv29-8; A201L) (protein) MVPKVGINGFGRIGRVVLRNALETGAVEVVALNDPFIEPHYAEYMFKYDSTHGRFKGDIKVDGKDLVIDGKRIKFYQERDPANIPWKDSGAEYIVESTGVFTTTEKASAHFKGGAKKVIISAPSADAPMYVMGVNEDTYAGANVISNASCTTNCLAPLAKTLNDKFTIVEGLMTAIHAYTASQKTVDGPSSKDWRGGRAALQNLIPSSTGAAKAVGKVIPELAGKVTGMSVRVPTVNVSLVDFTVRFAKDVTYDEVKAAIKEASEGPLKGILAYTEDDIVSTDILTDPHSSTFDAKAGIALNKNFVKVMSWYDNEYGYSRRVVDLIVFVSKKDAGQ | 260 ± 50 | 21.7 ± 3.33 | 83300 |
| HepG (Trichoderma virens Gv29-8) (protein) MVPKVGINGFGRIGRVVLRNALETGAVEVVALNDPFIEPHYAEYMFKYDSTHGRFKGDIKVDGKDLVIDGKRIKFYQERDPANIPWKDSGAEYIVESTGVFTTTEKASAHFKGGAKKVIISAPSADAPMYVMGVNEDTYAGANVISNASCTTNCLAPLAKTLNDKFTIVEGLMTAIHAYTASQKTVDGPSSKDWRGGRAAAQNLIPSSTGAAKAVGKVIPELAGKVTGMSVRVPTVNVSLVDFTVRFAKDVTYDEVKAAIKEASEGPLKGILAYTEDDIVSTDILTDPHSSTFDAKAGIALNKNFVKVMSWYDNEYGYSRRVVDLIVFVSKKDAGQ | 280 ± 50 | 41.7 ± 6.67 | 148000 |
